Measured values published in IntAct's records for PubMed 35512704.

B1: Mothers against decapentaplegic homolog 4 (Homo sapiens), Q13485 (parent)
chain: MDNMSITNTPTSNDACLSIVHSLMCHRQGGESETFAKRAIESLVKKLKEKKDELDSLITAITTNGAHPSKCVTIQRTLDGRLQVAGRKGFPHVIYARLWRWPDLHKNELKHVKYCQYAFDLKCDSVCVNPYHYERVVSPGIDLSGLTLQSNAPSSMMVKDEYVHDFEGQPSLSTEGHSIQTIQHPPSNRASTETYSTPALLAPSESNATSTANFPNIPVASTSQPASILGGSHSEGLLQIASGPQPGQQQNGFTGQPATYHHNSTTTWTGSRTAPYTPNLPHHQNGHLQHHPPMPPHPGHYWPVHNELAFQPPISNHPAPEYWCSIAYFEMDVQVGETFKVPSSCPIVTVDGYVDPSGGDRFCLGQLSNVHRTEAIERARLHIGKGVQLECKGEGDVWVRCLSDHAVFVQSYYLDREAGRAPGDAVHKIYPSAYIKVFDLRQCHRQMQQQAATAQAAAAAQAAAVAGNIPGPGSVGGIAPAISLSAAAGIGVDDLRRLCILRMSFVKGWGPDYPRQSIKETPCWIEIHLHRALQLLDEVLHTMPIADPQPLD

Variants of: B1
Settings: with h31_human H3C1, P68431

effect of a mutation on the interaction	Variant
with no effect	D351H

Variants of: B1
Settings: with hlab_human HLA-B

effect of a mutation on the interaction	Variant
with no effect	D351H

Variants of: B1
Settings: with rash_human HRAS

effect of a mutation on the interaction	Variant
with no effect	D351H

Variants of: B1
Settings: with hs90a_human HSP90AA1, P07900

effect of a mutation on the interaction	Variant
with no effect	D351H

Variants of: B1
Settings: with il7ra_human IL7R

effect of a mutation on the interaction	Variant
with no effect	D351H

Variants of: B1
Settings: with irf6_human IRF6, O14896

effect of a mutation on the interaction	Variant
with no effect	D351H

Variants of: B1
Settings: with irs1_human IRS1, P35568

effect of a mutation on the interaction	Variant
with no effect	D351H

Variants of: B1
Settings: with jak1_human JAK1, P23458

effect of a mutation on the interaction	Variant
with no effect	D351H

Variants of: B1
Settings: with kat2a_human KAT2A

effect of a mutation on the interaction	Variant
with no effect	D351H

Variants of: B1
Settings: with kdm5c_human KDM5C

effect of a mutation on the interaction	Variant
with no effect	D351H

Variants of: B1
Settings: with kdm6a_human KDM6A

effect of a mutation on the interaction	Variant
with no effect	D351H

Variants of: B1
Settings: with vgfr2_human KDR

effect of a mutation on the interaction	Variant
with no effect	D351H

Variants of: B1
Settings: with keap1_human KEAP1, Q14145

effect of a mutation on the interaction	Variant
with no effect	D351H

Variants of: B1
Settings: with klf4_human KLF4, O43474

effect of a mutation on the interaction	Variant
with no effect	D351H

Variants of: B1
Settings: with maga6_human MAGEA6, P43360

effect of a mutation on the interaction	Variant
with no effect	D351H

Variants of: B1
Settings: with mp2k7_human MAP2K7, O14733

effect of a mutation on the interaction	Variant
with no effect	D351H

Variants of: B1
Settings: with m3k1_human MAP3K1, Q13233

effect of a mutation on the interaction	Variant
with no effect	D351H

Variants of: B1
Settings: with mk10_human MAPK10, P53779

effect of a mutation on the interaction	Variant
with no effect	D351H

Variants of: B1
Settings: with mk14_human MAPK14, Q16539

effect of a mutation on the interaction	Variant
with no effect	D351H

Variants of: B1
Settings: with mk03_human MAPK3, P27361

effect of a mutation on the interaction	Variant
with no effect	D351H

Variants of: B1
Settings: with mk04_human MAPK4, P31152

effect of a mutation on the interaction	Variant
with no effect	D351H

Variants of: B1
Settings: with mk06_human MAPK6, Q16659

effect of a mutation on the interaction	Variant
with no effect	D351H

Variants of: B1
Settings: with mcl1_human MCL1, Q07820

effect of a mutation on the interaction	Variant
with no effect	D351H

Variants of: B1
Settings: with mitf_human MITF

effect of a mutation on the interaction	Variant
with no effect	D351H

Variants of: B1
Settings: with myc_human MYC

effect of a mutation on the interaction	Variant
with no effect	D351H

Variants of: B1
Settings: with nck2_human NCK2, O43639

effect of a mutation on the interaction	Variant
with no effect	D351H

Variants of: B1
Settings: with nf1_human NF1, P21359

effect of a mutation on the interaction	Variant
with no effect	D351H

Variants of: B1
Settings: with merl_human NF2, P35240

effect of a mutation on the interaction	Variant
with no effect	D351H

Variants of: B1
Settings: with nfic_human NFIC

effect of a mutation on the interaction	Variant
with no effect	D351H

Variants of: B1
Settings: with notc2_human NOTCH2, Q04721

effect of a mutation on the interaction	Variant
with no effect	D351H

Variants of: B1
Settings: with ntrk2_human NTRK2, Q16620

effect of a mutation on the interaction	Variant
with no effect	D351H

Variants of: B1
Settings: with ntrk3_human NTRK3, Q16288

effect of a mutation on the interaction	Variant
with no effect	D351H

Variants of: B1
Settings: with pak3_human PAK3, O75914

effect of a mutation on the interaction	Variant
with no effect	D351H

Variants of: B1
Settings: with prkn_human PRKN

effect of a mutation on the interaction	Variant
with no effect	D351H

Variants of: B1
Settings: with pax5_human PAX5, Q02548

effect of a mutation on the interaction	Variant
with no effect	D351H

Variants of: B1
Settings: with pax9_human PAX9, P55771

effect of a mutation on the interaction	Variant
with no effect	D351H

Variants of: B1
Settings: with pcbp1_human PCBP1, Q15365

effect of a mutation on the interaction	Variant
with no effect	D351H

Variants of: B1
Settings: with pgfra_human PDGFRA

effect of a mutation on the interaction	Variant
with no effect	D351H

Variants of: B1
Settings: with pgfrb_human PDGFRB

effect of a mutation on the interaction	Variant
with no effect	D351H

Variants of: B1
Settings: with pdk1_human PDK1, Q15118

effect of a mutation on the interaction	Variant
with no effect	D351H

Variants of: B1
Settings: with PIK3C2B

effect of a mutation on the interaction	Variant
with no effect	D351H

Variants of: B1
Settings: with pk3c3_human PIK3C3, Q8NEB9

effect of a mutation on the interaction	Variant
with no effect	D351H

Variants of: B1
Settings: with pk3ca_human PIK3CA

effect of a mutation on the interaction	Variant
with no effect	D351H

Variants of: B1
Settings: with pk3cb_human PIK3CB

effect of a mutation on the interaction	Variant
with no effect	D351H

Variants of: B1
Settings: with pk3cg_human PIK3CG

effect of a mutation on the interaction	Variant
with no effect	D351H

Variants of: B1
Settings: with p85a_human PIK3R1, P27986

effect of a mutation on the interaction	Variant
with no effect	D351H

Variants of: B1
Settings: with p85b_human PIK3R2, O00459

effect of a mutation on the interaction	Variant
with no effect	D351H

Variants of: B1
Settings: with dpod1_human POLD1, P28340

effect of a mutation on the interaction	Variant
with no effect	D351H

Variants of: B1
Settings: with dpoe1_human POLE

effect of a mutation on the interaction	Variant
with no effect	D351H

Variants of: B1
Settings: with lipa1_human PPFIA1, Q13136

effect of a mutation on the interaction	Variant
with no effect	D351H

Variants of: B1
Settings: with 2aaa_human PPP2R1A

effect of a mutation on the interaction	Variant
with no effect	D351H

Variants of: B1
Settings: with prdm1_human PRDM1, O75626

effect of a mutation on the interaction	Variant
with no effect	D351H

Variants of: B1
Settings: with aapk2_human PRKAA2, P54646

effect of a mutation on the interaction	Variant
with no effect	D351H

Variants of: B1
Settings: with prss8_human PRSS8, Q16651

effect of a mutation on the interaction	Variant
with no effect	D351H

Variants of: B1
Settings: with ptk6_human PTK6, Q13882

effect of a mutation on the interaction	Variant
with no effect	D351H

Variants of: B1
Settings: with tf65_human RELA

effect of a mutation on the interaction	Variant
with no effect	D351H

Variants of: B1
Settings: with rnf43_human RNF43, Q68DV7

effect of a mutation on the interaction	Variant
with no effect	D351H

Variants of: B1
Settings: with ros1_human ROS1, P08922

effect of a mutation on the interaction	Variant
with no effect	D351H

Variants of: B1
Settings: with rl5_human RPL5, P46777

effect of a mutation on the interaction	Variant
with no effect	D351H

Variants of: B1
Settings: with runx1_human RUNX1, Q01196

effect of a mutation on the interaction	Variant
with no effect	D351H

Variants of: B1
Settings: with ruvb1_human RUVBL1, Q9Y265

effect of a mutation on the interaction	Variant
with no effect	D351H

Variants of: B1
Settings: with sdha_human SDHA

effect of a mutation on the interaction	Variant
with no effect	D351H

Variants of: B1
Settings: with sf3b1_human SF3B1, O75533

effect of a mutation on the interaction	Variant
with no effect	D351H

Variants of: B1
Settings: with skp2_human SKP2, Q13309

effect of a mutation on the interaction	Variant
with no effect	D351H

Variants of: B1
Settings: with smad1_human SMAD1, Q15797

effect of a mutation on the interaction	Variant
with no effect	D351H

Variants of: B1
Settings: with smad2_human SMAD2, Q15796

effect of a mutation on the interaction	Variant
with no effect	D351H

Variants of: B1
Settings: with smad3_human SMAD3, P84022

effect of a mutation on the interaction	Variant
with no effect	D351H

Variants of: B1
Settings: with smca4_human SMARCA4, P51532

effect of a mutation on the interaction	Variant
with no effect	D351H

Variants of: B1
Settings: with snf5_human SMARCB1, Q12824

effect of a mutation on the interaction	Variant
with no effect	D351H

Variants of: B1
Settings: with smo_human SMO

effect of a mutation on the interaction	Variant
with no effect	D351H

Variants of: B1
Settings: with sox10_human SOX10, P56693

effect of a mutation on the interaction	Variant
with no effect	D351H

Variants of: B1
Settings: with sox2_human SOX2, P48431

effect of a mutation on the interaction	Variant
with no effect	D351H

Variants of: B1
Settings: with sox3_human SOX3, P41225

effect of a mutation on the interaction	Variant
with no effect	D351H

Variants of: B1
Settings: with sox4_human SOX4, Q06945

effect of a mutation on the interaction	Variant
with no effect	D351H

Variants of: B1
Settings: with sox9_human SOX9, P48436

effect of a mutation on the interaction	Variant
with no effect	D351H
